Measurements: patent publication US10005846 (LIFEARC, dated 2018)
Residue numbers refer to the chain shown, from its start.

What was measured:
[1] = target: T1, human transglutaminase type 2 (TG2) (human, UniProt P21980 1-687); test: cell-based or functional assay
T1 sequence: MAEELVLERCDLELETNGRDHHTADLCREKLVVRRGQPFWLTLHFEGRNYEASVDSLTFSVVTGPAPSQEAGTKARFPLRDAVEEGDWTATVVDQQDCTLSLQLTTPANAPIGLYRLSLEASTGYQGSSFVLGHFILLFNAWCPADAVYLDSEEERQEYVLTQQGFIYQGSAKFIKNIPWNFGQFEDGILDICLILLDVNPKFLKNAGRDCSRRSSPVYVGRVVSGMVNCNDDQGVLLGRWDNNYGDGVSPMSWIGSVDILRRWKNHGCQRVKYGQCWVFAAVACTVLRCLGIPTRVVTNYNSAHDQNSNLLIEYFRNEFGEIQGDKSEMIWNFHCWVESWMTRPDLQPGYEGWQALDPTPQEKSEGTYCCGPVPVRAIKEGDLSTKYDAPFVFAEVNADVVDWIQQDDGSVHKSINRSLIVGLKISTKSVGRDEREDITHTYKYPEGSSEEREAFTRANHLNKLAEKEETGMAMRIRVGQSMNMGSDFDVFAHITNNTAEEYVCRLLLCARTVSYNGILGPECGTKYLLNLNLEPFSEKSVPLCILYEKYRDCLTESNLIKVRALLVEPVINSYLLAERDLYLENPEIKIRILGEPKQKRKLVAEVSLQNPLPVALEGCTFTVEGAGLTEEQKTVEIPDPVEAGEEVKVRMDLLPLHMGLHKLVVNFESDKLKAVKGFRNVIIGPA

cynomolgus monkey TG2 [2] = target: T2, cynomolgus monkey TG2 (cynomolgus monkey, UniProt A0A2K5VXI8 1-687); test: ELISA on immobilised cynomolgus monkey TG2; r2 0.9992; EC50 95% confidence range 0.3040 to 0.3536 [panel A]
T2 construct: Bought recombinant protein; also called cynomogulus monkey TG2; cyano TG2
T2 sequence: T1 sequence with E4D, Q157R, N177S, H413S, I421T, Y528H, V542I
Method: (§1) Antibody binding to human and cynomolgus monkey TG2 was determined in an ELISA assay. Clear polystyrene "Maxisorp" 96-well plates (Nunc) were coated with 50 ng purified human or cynomogulus monkey TG2 in 50 µl 0.05 M carbonate-bicarbonate buffer pH 9.6 at 4° C. overnight. Control wells were coated with 50 µl 100 µg/ml bovine serum albumin (BSA). Plates were washed 3× with 300 µl phosphate-buffered saline pH7.4 (PBS) containing 0.1% Tween 20 (PBST) and blocked with 300 µl 3% w/v Marvel skimmed milk in PBS for 1 hour at room temperature. After 3× wash with PBST, 50 µl protein-A purified chimeric or humanised anti-TG2 antibodies or human IgG1 kappa […] control antibody or CUB7402 (Abcam) were serially diluted 4-fold from a top concentration of 50 nM in PBS, and added to the plate in duplicate. […] After 3× washes with PBST, the plates were developed with 50 µl TMB substrate (Sigma) for 5 min at room temperature before stopping the reaction with 25 µl 0.5M H2SO4 and reading absorbance at 450 nm in a microtiter plate reader (BioTek EL808). Dose response curves were analysed and EC50 values and other statistical parameters determined using a 4-parameter logistical fit of the data (GraphPad Prism).

rat TG2 = target: T3, rat TG2 (rat, UniProt Q9WVJ6 1-686, limits assumed); test: western blot and ELISA
T3 sequence: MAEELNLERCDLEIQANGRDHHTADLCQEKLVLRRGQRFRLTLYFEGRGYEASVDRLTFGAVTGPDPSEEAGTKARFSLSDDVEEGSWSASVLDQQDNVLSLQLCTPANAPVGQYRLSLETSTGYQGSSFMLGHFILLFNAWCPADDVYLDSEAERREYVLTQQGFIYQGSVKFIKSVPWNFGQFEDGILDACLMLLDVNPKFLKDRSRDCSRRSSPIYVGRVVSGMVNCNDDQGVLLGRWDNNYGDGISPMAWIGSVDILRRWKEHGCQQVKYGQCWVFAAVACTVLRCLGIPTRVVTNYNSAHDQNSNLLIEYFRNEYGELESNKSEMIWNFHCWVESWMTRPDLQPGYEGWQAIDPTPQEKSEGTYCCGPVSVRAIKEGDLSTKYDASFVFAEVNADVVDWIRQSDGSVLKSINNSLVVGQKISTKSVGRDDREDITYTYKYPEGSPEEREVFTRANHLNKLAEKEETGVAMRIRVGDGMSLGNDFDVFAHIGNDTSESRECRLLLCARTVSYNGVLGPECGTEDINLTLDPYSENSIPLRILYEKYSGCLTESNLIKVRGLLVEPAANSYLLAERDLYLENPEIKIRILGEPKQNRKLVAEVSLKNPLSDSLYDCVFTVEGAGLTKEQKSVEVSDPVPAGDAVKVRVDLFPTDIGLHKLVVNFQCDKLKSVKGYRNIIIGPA

[3] = target: T1, human transglutaminase type 2 (TG2); test: cell-based or functional assay; remark: listed apart in the source
cynomolgus monkey TG2 [4] = target: T2, cynomolgus monkey TG2; test: ELISA on immobilised cynomolgus monkey TG2; r2 0.9383; EC50 95% confidence range 0.03303 to 0.08079 [panel B]
Method: as §1

B1: cDH001 chimeric antibody (murine DH2 variable regions) (antibody, human IgG1, V domains shown)
VH: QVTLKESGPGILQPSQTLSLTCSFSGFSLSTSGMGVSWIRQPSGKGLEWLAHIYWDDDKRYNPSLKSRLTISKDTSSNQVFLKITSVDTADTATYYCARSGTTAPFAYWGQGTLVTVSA
VL: QIVLTQSPAIMSASPGEKVTMTCSASSSVSYMYWYQQKPGSSPRLLIYDTSNLASGVPVRFSGSGSGTSYSLTISRMEAEDAATFYCQQWSSSPLTFGAGTKLELK
[1]
  IC50 of enzymatic inhibition, dansylated lysine incorporation into N,N-dimethylated casein [continued), panel E]: 829 nM

B2: cDD9001 chimeric antibody (murine DD9 variable regions) (antibody, human IgG1, V domains shown)
VH: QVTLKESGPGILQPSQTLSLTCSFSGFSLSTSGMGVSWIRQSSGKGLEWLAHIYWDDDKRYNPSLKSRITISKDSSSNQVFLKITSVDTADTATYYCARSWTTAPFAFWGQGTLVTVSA
VL: B1 VL with S30D, E78G, F85Y, S91N
Cynomolgus monkey TG2 [2]
  EC50: 0.328 nM

B3: DC1 murine monoclonal antibody (antibody, V domains shown)
VH: EVQLVESGGGLVKPGGSLKLSCAASGFTLSTHAMSWVRQTPEKRLEWVATISSGGRSTYYPDSVKGRFTISRDNVKNTLYLQLSSLRSEDTAVYFCARLISTYWGQGTTLTVSS
VL: DITMTQSPSSIYASLGERVTITCKASQDINSYLTWFQQKPGKSPKILIYLVNRLVDGVPSRFSGSGSGQDYALTISSLEYEDMGIYYCLQYDDFPYTFGGGTKLEIK
notes: Mouse hybridoma IgG; heavy chain amplified with primer MHCG1, kappa light chain; also called mDC001
Rat TG2
  binding result: binds

B4: cBB001 chimeric antibody (murine BB7 variable regions) (antibody, human IgG1, V domains shown)
VH: AVQLVESGGGLVKPGGSLKLSCAASGIIFSSSAMSWVRQTPEKRLEWVATISSGGRSTYYPDSVKGRFTVSRDSAKNTLYLQMDSLRSEDTAIYYCAKLISPYWGQGTTLTVSS
VL: AIKMTQSPSSMYASLGERVIITCKASQDINSYLTWFQQKPGKSPKTLIYLTNRLMDGVPSRFSGSGSGQEFLLTISGLEHEDMGIYYCLQYVDFPYTFGGGTKLEIK
notes: also called chimeric BB7
[3]
  IC50 of enzymatic inhibition, dansylated lysine incorporation into N,N-dimethylated casein [panel B]: 0.925 nM
Cynomolgus monkey TG2 [4]
  EC50: 0.0517 nM

B5: JE12 murine monoclonal antibody (antibody, V domains shown)
VH: EVQLQQSGPELVKPGASVKMSCKASGYRFTSYVMHWVKQKSGQGLEWIGYINPYNDGAKYNEKFKGKATLTSDKSSSTAYMELSSLTSEDSAVYYCARLSSDYWGQGTTLTVSS
VL: DVLMTQNPLSLPVSLGDQASISCRSSQSIEHINGNTYLEWYLQKPGQSPKFLIYKVSNRFSGVPDRFSGSGSGTDFTLRISRVEAEDLGIYYCFQGSHVPFTFGGGTKLEIK
notes: Mouse hybridoma IgG; heavy chain amplified with primer MHCG1, kappa light chain
Rat TG2
  binding result: binds
